63 sequences from the supplement of paper PMC7877785 can be followed below.

± gives the uncertainty stated by the source.

This series is described as follows: self-splicing fitness, log relative to wild type (ln ratio); higher = more splicing; Tetrahymena group I intron in knt gene, E. coli kanamycin selection, DiMSum; sequences stand for … in CUCUCU…GGAGGGAAAAGUUAUCAGGCAUGCACCUGGUAGCUAGUCUUUAAACCAAUAGAUUGCAUCGGUUUAAAAGGCAAGACCGUCAAAUUGCGGGAAAGGGGUCAACAGCCGUUCAGUACCAAGUCUCAGGGGAAACUUUGAGAUGGCCUUGCAAAGGGUAUGGUAAUAAGCUGACGGACAUGGUCCUAACCACGCAGCCAAGUCCUAAGUCAACAGAUCUUCUGUUGAUAUGGAUGCAGUUCACAGACUAAAUGUCGGUCGGGGAAGAUGUAUUCUUCUCAUAAGAUAUAGUCGGACCUCUCCUUAAUGGGAGCUAGCGGAUGAAGUGAUGCAACACUGGAGCCGCUGGGAACUAAUUUGUAUGCGAAAGUAUAUUGAUUAGUUUUGGAGUACUCGUGGUCG
In a few lines: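 DiMSum derived fitness as the error-weighted combination of fold changes across replicates, kanamycin versus no kanamycin, normalised to wild type. E. coli BL21(DE3) held the library, which randomised all eight P1ex-region intron nucleotides within the knt kanamycin-resistance gene on pET-22b(+). Six replicate transformations grew overnight at 37°C or 30°C on LB agar with or without 25 μg/mL kanamycin, also containing 100 μg/mL carbenicillin, 50 μM IPTG and 0.2% rhamnose, and pooled colonies were amplicon-sequenced on an Illumina HiSeq 2500.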

With CGUCAGCAAUAUUACGCUCG, the “self-splicing fitness (ln)” value (30 °C) was -2.69 ± 0.18 and the “self-splicing fitness (ln)” value (37 °C) was -1.63 ± 0.15.
GGUUAGCAAUAUUACGUCAG: under “30 °C”, the “self-splicing fitness (ln)” value is -3.16 ± 0.47.
Regarding UAUAAGCAAUAUUACGCAGU, the “self-splicing fitness (ln)” value is, setting by setting: (30 °C) -3.27 ± 0.2; (37 °C) -1.68 ± 0.15.
In the same order, the values of GUGGAGCAAUAUUACGUUAA are -2.17 ± 0.19 and -2.41 ± 0.26.
As for GCUUAGCAAUAUUACGACUU, the “self-splicing fitness (ln)” value worked out at 0.0581 ± 0.092 (30 °C) and 0.248 ± 0.1 (37 °C).
In the same order, the values of UCGGAGCAAUAUUACGCCUU are -2.96 ± 0.29 and -2.92 ± 0.43.
Consider AGCUAGCAAUAUUACGGCAG, for which the “self-splicing fitness (ln)” value runs as follows: (30 °C) -1.19 ± 0.1; (37 °C) -1.08 ± 0.12.
In the same order, the values of GACGAGCAAUAUUACGCCGC are -2.06 ± 0.16 and -1.72 ± 0.38.
In the same order, the values of ACCCAGCAAUAUUACGUUCA are -0.957 ± 0.061 and -0.811 ± 0.071.
With CCACAGCAAUAUUACGUAAG, the “self-splicing fitness (ln)” value is -0.731 ± 0.038 (30 °C) and 0.388 ± 0.061 (37 °C).
On to CCCAAGCAAUAUUACGUAAC, for which the “self-splicing fitness (ln)” value by setting is: (30 °C) -3.6 ± 0.18; (37 °C) -2.52 ± 0.21.
Turning to GUGCAGCAAUAUUACGGUUA, the “self-splicing fitness (ln)” value was -0.723 ± 0.092 (30 °C) and -0.164 ± 0.089 (37 °C).
Regarding GGAGAGCAAUAUUACGCCAA, for the setting “30 °C”, the “self-splicing fitness (ln)” value is -2.04 ± 0.24.
With GCCAAGCAAUAUUACGGUGA, the “self-splicing fitness (ln)” value runs as follows: (30 °C) -1.06 ± 0.06; (37 °C) -0.493 ± 0.065.
The corresponding values for GAUCAGCAAUAUUACGCCAU are -3.36 ± 0.3 and -1.33 ± 0.19.
In the same order, the values of GGUUAGCAAUAUUACGAGCA are -0.943 ± 0.1 and -0.264 ± 0.1.
On to CCCCAGCAAUAUUACGAUUU, for which the “self-splicing fitness (ln)” value reads like this: (30 °C) -3.43 ± 0.14; (37 °C) -3.51 ± 0.25.
With UCUGAGCAAUAUUACGCAUA, the “self-splicing fitness (ln)” value is -2.73 ± 0.17 (30 °C) and -1.19 ± 0.15 (37 °C).
The corresponding values for ACUUAGCAAUAUUACGGUCG are -2.52 ± 0.17 and -1.35 ± 0.2.
The corresponding values for AAUUAGCAAUAUUACGCGAC are -2.66 ± 0.21 and -1.61 ± 0.24.
In the same order, the values of UUUCAGCAAUAUUACGAUAG are -0.323 ± 0.088 and -0.323 ± 0.11.
Regarding GGCGAGCAAUAUUACGCCUA, the “self-splicing fitness (ln)” value (37 °C) is -1.76 ± 0.23.
For CAAAAGCAAUAUUACGCAAG, the “self-splicing fitness (ln)” value by setting is: (30 °C) -1.52 ± 0.12; (37 °C) 0.0344 ± 0.12.
The corresponding values for UCACAGCAAUAUUACGCUCU are -2.38 ± 0.16 and -3.34 ± 0.47.
The corresponding values for UCCGAGCAAUAUUACGGUAA are -2.21 ± 0.18 and -1.08 ± 0.12.
In the same order, the values of CUGGAGCAAUAUUACGAUUA are -2.56 ± 0.27 and -1.07 ± 0.26.
As to CCAUAGCAAUAUUACGACAA, the “self-splicing fitness (ln)” value is -3.06 ± 0.41 (30 °C) and -2.94 ± 0.35 (37 °C).
The corresponding values for CUACAGCAAUAUUACGGCGC are -3.96 ± 0.29 and -1.68 ± 0.39.
The corresponding values for UAAAAGCAAUAUUACGUCCA are 0.0284 ± 0.091 and -0.623 ± 0.12.
Turning to CCGCAGCAAUAUUACGAGGU, the “self-splicing fitness (ln)” value is -3.73 ± 0.2 (30 °C) and -1.84 ± 0.19 (37 °C).
The corresponding values for GUCUAGCAAUAUUACGGAUU are -1.75 ± 0.089 and -0.0906 ± 0.085.
Take GUUGAGCAAUAUUACGCCCG: the “self-splicing fitness (ln)” value (30 °C) is -2.7 ± 0.49.
As for CUCCAGCAAUAUUACGACCA, the “self-splicing fitness (ln)” value (37 °C) was -1.37 ± 0.41.
Turning to ACUCAGCAAUAUUACGGAGG, the “self-splicing fitness (ln)” value runs as follows: (30 °C) -2.28 ± 0.13; (37 °C) -1.35 ± 0.17.
With GCUCAGCAAUAUUACGGCGA, the “self-splicing fitness (ln)” value is -1.73 ± 0.12 (30 °C) and -1.36 ± 0.19 (37 °C).
In the same order, the values of UAAGAGCAAUAUUACGGGGU are -2.67 ± 0.19 and -1.44 ± 0.49.
Consider UCACAGCAAUAUUACGUCUA, for which the “self-splicing fitness (ln)” value was -1.25 ± 0.077 (30 °C) and -0.331 ± 0.075 (37 °C).
The corresponding values for AGACAGCAAUAUUACGCUAG are -4.3 ± 0.3 and -2.81 ± 0.22.
In the same order, the values of AGGAAGCAAUAUUACGUAGA are -1.86 ± 0.099 and -2.42 ± 0.15.
Take UCAGAGCAAUAUUACGAAGU: the “self-splicing fitness (ln)” value (30 °C) is -3.13 ± 0.33.
Regarding AUCGAGCAAUAUUACGUGUA, the “self-splicing fitness (ln)” value is -3.46 ± 0.33 (30 °C) and -2.11 ± 0.18 (37 °C).
The corresponding values for ACUAAGCAAUAUUACGAUCU are -0.809 ± 0.092 and 0.314 ± 0.1.
For GCCCAGCAAUAUUACGAGAA, the “self-splicing fitness (ln)” value (30 °C) was -0.685 ± 0.28 and the “self-splicing fitness (ln)” value (37 °C) is -0.511 ± 0.21.
Consider GAGAAGCAAUAUUACGGAGG, for which the “self-splicing fitness (ln)” value (37 °C) was -2.47 ± 0.21.
On to CCGGAGCAAUAUUACGAAAU, for which the “self-splicing fitness (ln)” value (30 °C) is -3.2 ± 0.27 and the “self-splicing fitness (ln)” value (37 °C) was -0.842 ± 0.37.
The corresponding values for AGCAAGCAAUAUUACGCGCG are -1.54 ± 0.072 and -0.145 ± 0.09.
Consider CAACAGCAAUAUUACGGUAG, for which the “self-splicing fitness (ln)” value (30 °C) was -0.633 ± 0.059 and the “self-splicing fitness (ln)” value (37 °C) was -0.746 ± 0.068.
The corresponding values for CCCUAGCAAUAUUACGUGCA are -3.99 ± 0.18 and -2.92 ± 0.14.
Consider GAGCAGCAAUAUUACGACAC, for which the “self-splicing fitness (ln)” value runs as follows: (30 °C) -0.81 ± 0.23; (37 °C) -0.627 ± 0.21.
The corresponding values for UGUUAGCAAUAUUACGGGAG are -3.62 ± 0.25 and -3.42 ± 0.25.
The corresponding values for AGCGAGCAAUAUUACGACGU are -1.74 ± 0.083 and -0.339 ± 0.11.
In the same order, the values of CCCCAGCAAUAUUACGGGCC are -3.27 ± 0.15 and -1.7 ± 0.15.
Regarding AACUAGCAAUAUUACGUGGC, the “self-splicing fitness (ln)” value was -3.72 ± 0.25 (30 °C) and -1.92 ± 0.17 (37 °C).
Consider ACGUAGCAAUAUUACGAGGC, for which the “self-splicing fitness (ln)” value (37 °C) was -2.11 ± 0.39.
AUCUAGCAAUAUUACGCACU: the “self-splicing fitness (ln)” value is -1.42 ± 0.17 (30 °C) and 0.0807 ± 0.17 (37 °C).
With UACGAGCAAUAUUACGACCA, the “self-splicing fitness (ln)” value (30 °C) is -1.71 ± 0.42.
Consider ACAGAGCAAUAUUACGUUCC, for which the “self-splicing fitness (ln)” value was -2.89 ± 0.32 (30 °C) and -1.81 ± 0.34 (37 °C).
With CAGAAGCAAUAUUACGUCCG, the “self-splicing fitness (ln)” value reads like this: (30 °C) 0.0183 ± 0.11; (37 °C) -0.0354 ± 0.13.
For the sequence CAUAAGCAAUAUUACGGGUU, the “self-splicing fitness (ln)” value runs as follows: (30 °C) -3.37 ± 0.21; (37 °C) -3.73 ± 0.24.
As to UCUCAGCAAUAUUACGCGUC, the “self-splicing fitness (ln)” value (30 °C) was -3.62 ± 0.27 and the “self-splicing fitness (ln)” value (37 °C) is -2.81 ± 0.29.
As for AUCGAGCAAUAUUACGAAUU, the “self-splicing fitness (ln)” value is -3.57 ± 0.25 (30 °C) and -2.1 ± 0.2 (37 °C).
As for GCCGAGCAAUAUUACGCGGC, the “self-splicing fitness (ln)” value (37 °C) is -2.33 ± 0.36.
For CUUGAGCAAUAUUACGAAAC, the “self-splicing fitness (ln)” value reads like this: (30 °C) -4 ± 0.33; (37 °C) -2.78 ± 0.36.
